Our source for the Kd values is publication PMC3197213 (Structure (London, England : 1993), 2011).

This assay concerns the target rat syntaxin-1A SNARE motif (residues 191-253) (rat, UniProt P32851 191-253). The assay can be described thus: NMR titration.

Chain of rat syntaxin-1A SNARE motif (residues 191-253) (P32851 191-253): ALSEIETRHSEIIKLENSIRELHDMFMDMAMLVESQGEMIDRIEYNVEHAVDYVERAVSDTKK

B1: Rat Munc13-1 MUN-CD module (1148-1407,EF,1453-1531 fragment) (domain or fragment)
chain: not shown
One may read the Kd as the concentration at which binding is half-saturated. Lower therefore signals a tighter complex. In turn, B1 gave a Kd above 300 µM.
